Publication PMC9367475

How the values were obtained:
[1] = molecular target: human DC-SIGN expressed on HEK 293T cells (DC-HEK) (human) (UniProt Q9NNX6); assay: cell binding assay (immunofluorescence read on a microplate reader); DC-HEK or DC-THP-1 cells in microtiter wells (1 x 10^5 cells/well); spike pseudotypes pre-incubated with or without rfhSP-D (20 µg/ml) added for 2 h at room temperature; fixed, anti-spike and Alexa Fluor 488 secondary antibody
[2] = molecular target: DC-SIGN on THP-1 cells induced with PMA and IL-4 (DC-THP-1) (human (endogenous in THP-1)) (UniProt Q9NNX6); assay: as above
[3] = molecular target: human DC-SIGN expressed on HEK 293T cells (DC-HEK) (human) (UniProt Q9NNX6)
[4] = molecular target: DC-SIGN on THP-1 cells induced with PMA and IL-4 (DC-THP-1) (human (endogenous in THP-1)) (UniProt Q9NNX6)

Substance	increase of binding with rfhSP-D (20 µg/ml) against untreated [1]	increase of binding with rfhSP-D (20 µg/ml) against untreated [2]	luciferase reporter activity (pseudotype transduction of DC-HEK cells), with rfhSP-D 20 µg/ml against untreated [3]	luciferase reporter activity (pseudotype transduction of DC-THP-1 cells), with rfhSP-D 20 µg/ml against untreated [4]
SARS-CoV-2 spike protein on lentiviral pseudotypes (from UniProt P0DTC2 14-1273) (natural protein; other documents disagree on this pair)	50%	25%	–	–
SARS-CoV-2 spike protein on lentiviral pseudotypes (from UniProt P0DTC2 14-1273) (natural protein)	–	–	190%	90%
